Assay: Serum concentration of OCIF after intravenous injection in rats
Assay type: in vivo
Conditions: Wistar female rat, single i.v. dose 0.5 mg OCIF/kg, 6 hours after administration
Procedure: Five-week old Wistar female rat (having a body weight of about 100 g) were made to abstain from food overnight. The preparation of OCIF and dextran sulfate prepared in either Preparation Example 1, Preparation Example 2 or Reference Example 1 which was to be tested was diluted to a concentration of 0.25 mg/ml with PBS (pH 7.4) containing 0.01% Polysorbate 80 to prepare an injectable solution, which was then administered to the tail of one of the test rats via a vein in a single dose at an injected level of 2 ml/kg body weight. 6 hours after administration, blood was taken from the heart of the rat. […]
After stirring gently using a shaking machine (Micro plate mixer NS-P: manufactured by Iuchi Seiei-Do Co Ltd.), the absorbance of each well at a wavelength of 450 nm was measured using a micro plate reader (SPECTRA THERMO: manufactured by TECAN). The OCIF concentration in the tested serum was then calculated from a calibration curve created using the standard OCIF solution. The dose was calculated as the dose of OCIF per kg body weight (mg/kg) by measuring the concentration of OCIF in each injection prepared in 1(a) in a similar manner to the case of the serum.
The OCIF in the serum obtained in 1(b) above was quantified for each sample according to the method described in 1(c) above.

Prep. 4: OCIF/DS5 complex: DS5 130 mg/ml, OCIF 6.5 mg/ml, 4 °C, pH 10.5, 72 h
Serum concentration (OCIF): 370 ng/mL

Source: patent US20030216297A1, “Pharmaceutical composition” (SANKYO COMPANY, LIMITED, priority 2002, published 2003)
